Laboratory results taken from patent US20210139598A1 (ROCKEFELLER UNIVERSITY, published 2021).

T1: human FcγRIIB, soluble ectodomain (human, UniProt P31994 43-217)
T1 construct: extracellular domain; Recombinant; also called hFcγRIIB; huFcγRIIB
T1 sequence (looked up): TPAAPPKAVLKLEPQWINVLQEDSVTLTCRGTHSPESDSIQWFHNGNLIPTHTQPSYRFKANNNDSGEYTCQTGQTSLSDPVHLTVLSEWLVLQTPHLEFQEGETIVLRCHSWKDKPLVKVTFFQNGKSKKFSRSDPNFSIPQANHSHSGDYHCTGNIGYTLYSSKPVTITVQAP

T2: human FcγRIIA R131 allele, soluble ectodomain (human, UniProt P12318 34-217)
T2 construct: extracellular domain; also called hFcγRIIA^R131; hFcγRIIA
T2 sequence (looked up): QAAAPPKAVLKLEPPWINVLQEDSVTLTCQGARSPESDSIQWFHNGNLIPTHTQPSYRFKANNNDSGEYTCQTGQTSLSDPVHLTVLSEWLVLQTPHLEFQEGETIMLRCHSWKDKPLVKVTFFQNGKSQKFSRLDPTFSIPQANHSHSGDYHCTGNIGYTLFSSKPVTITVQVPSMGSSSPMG


Experiments:
[1] = target: T3, human FcγRI, soluble ectodomain (human, UniProt P12314 16-292); assay: SPR (Biacore T100), 2141 Fc variant and soluble FcγR ectodomain
T3 construct: extracellular domain; Recombinant; also called hFcγRI; huFcγRI
T3 sequence (P12314 16-292): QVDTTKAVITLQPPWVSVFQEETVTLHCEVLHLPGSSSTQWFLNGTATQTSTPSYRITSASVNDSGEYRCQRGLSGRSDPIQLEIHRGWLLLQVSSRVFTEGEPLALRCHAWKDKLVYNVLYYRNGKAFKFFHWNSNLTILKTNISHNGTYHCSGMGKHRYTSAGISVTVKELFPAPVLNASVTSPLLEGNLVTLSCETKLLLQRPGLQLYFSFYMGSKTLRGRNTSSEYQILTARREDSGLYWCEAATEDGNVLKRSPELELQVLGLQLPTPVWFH
Method: (§1) All experiments were performed with a Biacore T100 surface plasmon resonance (SPR) system (Biacore, GE Healthcare), as previously described (Bournazos, et al., 2014, Cell 158, 1243-1253). Briefly, experiments were performed at 25_C in HBS-EP+ buffer (10 mM HEPES, pH 7.4; 150 mM NaCl; 3.4 mM EDTA; 0.005% (v/v) surfactant P20). […] Background binding to blank immobilized flow cells was subtracted and affinity constants were calculated using BIAcore T100 evaluation software (GE Healthcare) using the 1:1 Langmuir binding model.

[2] = target: T1, human FcγRIIB, soluble ectodomain; assay: as above
Method: as §1

[3] = target: T2, human FcγRIIA R131 allele, soluble …; assay: as above
Method: as §1

[4] = target: T4, human FcγRIIIA F158 allele, soluble ectodomain (human, UniProt P08637 17-208); assay: as above
T4 construct: extracellular domain; also called hFcγRIIIA^F158; huFcγRIIIA
T4 sequence (P08637 17-208): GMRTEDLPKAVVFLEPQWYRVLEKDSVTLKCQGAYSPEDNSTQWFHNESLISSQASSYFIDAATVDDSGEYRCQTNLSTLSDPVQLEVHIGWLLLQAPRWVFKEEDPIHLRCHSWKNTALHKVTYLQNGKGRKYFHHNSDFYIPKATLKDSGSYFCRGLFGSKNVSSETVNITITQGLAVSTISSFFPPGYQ
Method: as §1

[5] = target: T2, human FcγRIIA R131 allele, soluble …; assay: ratio of the binding affinities to hFcγRIIA R131 and to hFcγRIIB, from SPR
Method: as §1

[6] = target: T1, human FcγRIIB, soluble ectodomain; assay: fold change in hFcγRIIB binding affinity against wild type IgG1, from SPR
Method: as §1

[7] = target: T5, human CD40, soluble ectodomain / recombinant extracellular domain (human, UniProt P25942 21-193); assay: SPR (Biacore T100), IgG immobilised, soluble CD40 injected
T5 construct: also called hCD40; huCD40
T5 sequence (P25942 21-193): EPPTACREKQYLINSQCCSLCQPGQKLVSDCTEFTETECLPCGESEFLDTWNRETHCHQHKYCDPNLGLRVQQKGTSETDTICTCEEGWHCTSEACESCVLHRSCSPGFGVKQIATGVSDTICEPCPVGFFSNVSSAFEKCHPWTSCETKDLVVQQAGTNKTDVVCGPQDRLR
Method: as §1

[8] = target: T2, human FcγRIIA R131 allele, soluble …; assay: graded summary table of FcγR binding affinity profiles (SPR, see Table 4); the sheet prints no allele, R131 taken from Table 4
Method: as §1

Row | Binder | Kd [7] [nM] | koff [7] [s⁻¹] | kon [7] [M⁻¹ s⁻¹] | further results
1 | 2141-IgG1 (anti-human CD40 Ab clone 21.4.1, wild type human IgG1) (antibody, Made in HEK293T cells; also called IgG1 wild type) heavy: not shown light: DIQMTQSPSSVSASVGDRVTITCRASQGIYSWLAWYQQKPGKAPNLLIYTASTLQSGVPSRFSGSGSGTDFTLTISSLQPEDFATYYCQQANIFPLTFGGGTKVEIKRTVAAPSVFIFPPSDEQLKSGTASVVCLLNNFYPREAKVQWKVDNALQSGNSQESVTEQDSKDSTYSLSSTLTLSKADYEKHKVYACEVTHQGLSSPVTKSFNRGEC | 19.9 | 0.00119 | 59700 | Fold (KD(IgG1)/KD(Fc variant)) [1]: 1 fold; Fold (KD(IgG1)/KD(Fc variant)) [2]: 1 fold; Fold (KD(IgG1)/KD(Fc variant)) [3]: 1 fold; Fold (KD(IgG1)/KD(Fc variant)) [4]: 1 fold; IIA/IIB [5]: 2.7; FcγRIIB -fold [6]: 1 fold
2 | 2141-IgG2 (CP-870,893, human IgG2) (antibody) heavy: not shown light: DIQMTQSPSSVSASVGDRVTITCRASQGIYSWLAWYQQKPGKAPNLLIYTASTLQSGVPSRFSGSGSGTDFTLTISSLQPEDFATYYCQQANIFPLTFGGGTKVEIKRTVAAPSVFIFPPSDEQLKSGTASVVCLLNNFYPREAKVQWKVDNALQSGNSQESVTEQDSKDSTYSLSSTLTLSKADYEKHKVYACEVTHQGLSSPVTKSFNRGEC | 31 | 0.00108 | 34900 | Kd [3]: < 10000 nM; Kd [4]: < 10000 nM
3 | 2141-IgG2 C232S (antibody, also called IgG2-C232S (IgG2A); IgG2-A) heavy: not shown light: DIQMTQSPSSVSASVGDRVTITCRASQGIYSWLAWYQQKPGKAPNLLIYTASTLQSGVPSRFSGSGSGTDFTLTISSLQPEDFATYYCQQANIFPLTFGGGTKVEIKRTVAAPSVFIFPPSDEQLKSGTASVVCLLNNFYPREAKVQWKVDNALQSGNSQESVTEQDSKDSTYSLSSTLTLSKADYEKHKVYACEVTHQGLSSPVTKSFNRGEC | 30.9 | 0.00109 | 35200 | –
4 | 2141-IgG2 C127S (antibody, also called IgG2-B) heavy: not shown light: DIQMTQSPSSVSASVGDRVTITCRASQGIYSWLAWYQQKPGKAPNLLIYTASTLQSGVPSRFSGSGSGTDFTLTISSLQPEDFATYYCQQANIFPLTFGGGTKVEIKRTVAAPSVFIFPPSDEQLKSGTASVVCLLNNFYPREAKVQWKVDNALQSGNSQESVTEQDSKDSTYSLSSTLTLSKADYEKHKVYACEVTHQGLSSPVTKSFNRGEC | 30.9 | 0.0011 | 35500 | –
5 | 2141-IgG1 S267E (antibody, also called SE) heavy: not shown light: DIQMTQSPSSVSASVGDRVTITCRASQGIYSWLAWYQQKPGKAPNLLIYTASTLQSGVPSRFSGSGSGTDFTLTISSLQPEDFATYYCQQANIFPLTFGGGTKVEIKRTVAAPSVFIFPPSDEQLKSGTASVVCLLNNFYPREAKVQWKVDNALQSGNSQESVTEQDSKDSTYSLSSTLTLSKADYEKHKVYACEVTHQGLSSPVTKSFNRGEC | 23.1 | 0.00115 | 50000 | –
6 | 2141-IgG1 S267E/L328F (antibody, also called SELF) heavy: not shown light: DIQMTQSPSSVSASVGDRVTITCRASQGIYSWLAWYQQKPGKAPNLLIYTASTLQSGVPSRFSGSGSGTDFTLTISSLQPEDFATYYCQQANIFPLTFGGGTKVEIKRTVAAPSVFIFPPSDEQLKSGTASVVCLLNNFYPREAKVQWKVDNALQSGNSQESVTEQDSKDSTYSLSSTLTLSKADYEKHKVYACEVTHQGLSSPVTKSFNRGEC | 27.4 | 0.00116 | 42300 | Kd [3]: 17.7 nM
7 | 2141-IgG1 G237D/P238D/H268D/P271G/A330R (V11) (antibody, also called 2141-V11) heavy: not shown light: DIQMTQSPSSVSASVGDRVTITCRASQGIYSWLAWYQQKPGKAPNLLIYTASTLQSGVPSRFSGSGSGTDFTLTISSLQPEDFATYYCQQANIFPLTFGGGTKVEIKRTVAAPSVFIFPPSDEQLKSGTASVVCLLNNFYPREAKVQWKVDNALQSGNSQESVTEQDSKDSTYSLSSTLTLSKADYEKHKVYACEVTHQGLSSPVTKSFNRGEC | 27.4 | 0.00112 | 41000 | –
8 | 2141-IgG1 N297A (antibody, also called N297A Fc-null) heavy: not shown light: DIQMTQSPSSVSASVGDRVTITCRASQGIYSWLAWYQQKPGKAPNLLIYTASTLQSGVPSRFSGSGSGTDFTLTISSLQPEDFATYYCQQANIFPLTFGGGTKVEIKRTVAAPSVFIFPPSDEQLKSGTASVVCLLNNFYPREAKVQWKVDNALQSGNSQESVTEQDSKDSTYSLSSTLTLSKADYEKHKVYACEVTHQGLSSPVTKSFNRGEC | 22.2 | 0.00116 | 52300 | binding result [8]: no binding
9 | 2141-IgG1 G237D/P238D/P271G/A330R (V9) (antibody) heavy: not shown light: DIQMTQSPSSVSASVGDRVTITCRASQGIYSWLAWYQQKPGKAPNLLIYTASTLQSGVPSRFSGSGSGTDFTLTISSLQPEDFATYYCQQANIFPLTFGGGTKVEIKRTVAAPSVFIFPPSDEQLKSGTASVVCLLNNFYPREAKVQWKVDNALQSGNSQESVTEQDSKDSTYSLSSTLTLSKADYEKHKVYACEVTHQGLSSPVTKSFNRGEC | 26.8 | 0.00113 | 42200 | Kd [1]: 578 nM
